From article PMC4824444

Tests used:
[1] = target: kappa-opioid peptide (KOP) receptor (human (endogenous in THP-1)) (UniProt P41145)
[2] = target: kappa-opioid peptide (KOP) receptor (human (endogenous in THP-1)) (UniProt P41145); remark: listed apart in the source

Sequence of UniProt P41145 (P41145 whole entry): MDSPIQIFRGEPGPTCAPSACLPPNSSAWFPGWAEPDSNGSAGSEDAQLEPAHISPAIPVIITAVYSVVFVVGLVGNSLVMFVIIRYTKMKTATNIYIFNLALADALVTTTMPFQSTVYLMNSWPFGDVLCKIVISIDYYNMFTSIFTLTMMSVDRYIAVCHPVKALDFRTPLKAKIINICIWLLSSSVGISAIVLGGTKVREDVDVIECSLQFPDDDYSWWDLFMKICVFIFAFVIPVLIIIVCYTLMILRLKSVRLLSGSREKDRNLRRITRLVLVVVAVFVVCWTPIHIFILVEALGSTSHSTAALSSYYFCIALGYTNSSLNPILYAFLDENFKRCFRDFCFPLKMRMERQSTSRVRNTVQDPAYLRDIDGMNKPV

Question: Which inhibition of LPS-stimulated NF-κB/p65 nuclear translocation in differentiated THP-1 cells by DYN 1-7 at 10 nM, relative to the LPS control group; reversed by the KOP receptor antagonist ML-190 (1 μM) [1] does the source give for Dynorphin 1-7 (peptide) here?
Answer: 44%

Question: And the reduction of LPS-stimulated IL-1β and TNF-α release from differentiated THP-1 cells by DYN 1-7 (0.1 μM, 1 nM, 10 pM; 24 hr; AlphaLISA); reversed by ML-190 at 10 pM (IL-1β, TNF-α) and at 1 nM (TNF-α) [2]?
Answer: 15 to 30%
